Measured values published in PMC6602975.

Key:
Experiment in all cases: EMSA
[1] = test system: Orc1 BAH Lid swap (Saccharomyces cerevisiae); conditions: 10 mM Tris pH 7.5, 50 mM NaCl, 2.5% glycerol, 1 mM DTT, room temperature 30 min, 25 or 50 nM nucleosome, native PAGE 0.2x TBE
[2] = test system: Sir3 BAH D205N (Saccharomyces cerevisiae); conditions: apparent Kd, 10 mM Tris pH 7.5, 50 mM NaCl, 2.5% glycerol, 1 mM DTT, room temperature 30 min, 25 or 50 nM nucleosome, native PAGE 0.2x TBE
[3] = test system: T1, Orc1 BAH WT (Saccharomyces cerevisiae); conditions: apparent Kd, 10 mM Tris pH 7.5, 50 mM NaCl, 2.5% glycerol, 1 mM DTT, room temperature 30 min, 25 or 50 nM nucleosome, native PAGE 0.2x TBE
T1 sequence: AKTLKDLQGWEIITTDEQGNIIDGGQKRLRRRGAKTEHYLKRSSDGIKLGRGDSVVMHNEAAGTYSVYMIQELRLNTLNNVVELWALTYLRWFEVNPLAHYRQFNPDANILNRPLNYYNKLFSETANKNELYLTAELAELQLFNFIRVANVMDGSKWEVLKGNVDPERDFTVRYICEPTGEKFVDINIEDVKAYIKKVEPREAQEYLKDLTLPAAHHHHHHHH

[4] = test system: Sir3 BAH D205Q (Saccharomyces cerevisiae); conditions: apparent Kd, 10 mM Tris pH 7.5, 50 mM NaCl, 2.5% glycerol, 1 mM DTT, room temperature 30 min, 25 or 50 nM nucleosome, native PAGE 0.2x TBE
[5] = test system: Sir3 BAH Lid D205Q (Saccharomyces cerevisiae); conditions: apparent Kd, 10 mM Tris pH 7.5, 50 mM NaCl, 2.5% glycerol, 1 mM DTT, room temperature 30 min, 25 or 50 nM nucleosome, native PAGE 0.2x TBE
[6] = test system: Orc1 BAH A2P (Saccharomyces cerevisiae); conditions: 10 mM Tris pH 7.5, 50 mM NaCl, 2.5% glycerol, 1 mM DTT, room temperature 30 min; 25 or 50 nM nucleosome; native PAGE 0.2x TBE
[7] = test system: Orc1 BAH R202E (Saccharomyces cerevisiae); conditions: 10 mM Tris pH 7.5, 50 mM NaCl, 2.5% glycerol, 1 mM DTT, room temperature 30 min; 25 or 50 nM nucleosome; native PAGE 0.2x TBE
[8] = test system: Orc1 BAH E95K (Saccharomyces cerevisiae); conditions: apparent Kd; 10 mM Tris pH 7.5, 50 mM NaCl, 2.5% glycerol, 1 mM DTT, room temperature 30 min; 25 or 50 nM nucleosome; native PAGE 0.2x TBE
[9] = test system: Orc1 BAH Q205D (Saccharomyces cerevisiae); conditions: apparent Kd; 10 mM Tris pH 7.5, 50 mM NaCl, 2.5% glycerol, 1 mM DTT, room temperature 30 min; 25 or 50 nM nucleosome; native PAGE 0.2x TBE
[10] = test system: Orc1 BAH L79I (Saccharomyces cerevisiae); conditions: 10 mM Tris pH 7.5, 50 mM NaCl, 2.5% glycerol, 1 mM DTT, room temperature 30 min; 25 or 50 nM nucleosome; native PAGE 0.2x TBE
[11] = histone H4 K16ac (genetically encoded), DNA unmodified

Substance H4K16Q nucleosome (147 bp 601) has a Kd ([1]; histone H4 K16Q (acetyl mimic), DNA unmodified) of 1400 nM.
H4K16ac nucleosome (147 bp 601) showed a Kd ([1]; apparent Kd, histone H4 K16ac (genetically encoded), DNA unmodified) of 3700 nM, a Kd [2, 11] of 810 nM and a Kd [3, 11] of 1500 nM. For the same substance, the Kd [4, 11] was 1200 nM and the Kd [5, 11] was 1700 nM.
For WT nucleosome (147 bp 601, unmodified), the Kd [1] was 700 nM, the Kd ([1]; apparent Kd, comparison set with H4K16ac) was 600 nM and the Kd [2] was 220 nM. The Kd [3] was 1300 nM, the Kd ([3]; reference set for mutants) was 1100 nM and the Kd [6] was 1900 nM. It also gave a Kd [4] of 300 nM, a binding signal (fold decrease in affinity vs Orc1 WT) [7] of 4.9 and a Kd [8] of 4.4 µM. It also gave a Kd [5] of 1000 nM, a Kd [9] of 5.1 µM and a Kd [10] of 400 nM.
